From patent US20250263489A1 come the findings set out here.

Broadly, the Kd is the equilibrium constant for the complex coming apart. One may read the koff as the rate constant with which the complex falls apart. Usually kon stands for the second-order rate constant of association.

Assay [1] addresses recombinant human IGF-1 receptor histidine tag (305-GR-050, R&D SYSTEMS) (human) (UniProt P08069). The assay can be described thus: antigen ELISA, plate-coated human recombinant IGF-1R, antibody at 5 nM, relative to IGF11-16. (An ELISA detects its analyte on a solid surface through an enzyme-linked reagent.)
The target is the same in assay [2]. Kind of assay: SPR, Biacore T200, 40 C, IGF-1R-His captured by anti-histidine-tag antibody, antibody as analyte, single cycle kinetics, 1:1 Binding model. On the technique in general: In SPR one partner is held on a chip, and binding of the other changes the refractive index at the surface.
The target is the same in assay [3]. Kind of assay: SPR, Biacore T200, summary sentence of Table 16.

Where a chain is given by its changes, count along the chain named.

B1: IGF11-16 with alanine substitution of W at position 32 (CDR-L1) (antibody, V domains shown)
VH: QIQLQQPGAELVKPGASVKLSCKAPGYTFTSYWMHWVKQRPGQGLEWIGETNPSNSVTNYNEKFKSKATLTVDKSSSTAYMQLSSLTSEDSAVYYCTIGRGRGFAYWGQGTLVTVSA
VL: DIQMNQSPSSLSASLGDTITITCRASQNINFALSWCQQKPGNIPKLLIYKASNLHTGVPSRFSGSGSGTDFTLTISSLQPEDIATYYCLQGQSYPYTFGGGTKLEIK
Take B1: the Binding @5 nM vs IGF11-16 (% vs IGF11-16) in assay [1] is 14.

B2: IGF11-16 with alanine substitution of S at position 56 (CDR-H2) (antibody, mouse IgG1, V domains shown)
VH: B1 VH with S56A
VL: B1 VL with A32W
For the molecule B2, the Binding vs IGF11-16 (EC50) (% vs IGF11-16) in assay [1] was 108.

B3: humanized antibody hIGF13_PS (antibody, V domains shown)
VH: QVQLVQSGAEVKKPGASVKVSCKAPGYTFTSYWMHWVRQAPGQGLEWMGETNPSSSVTNYAQKFQGRVTLTVDTSTSTAYMELSSLRSEDTATYYCTIGRGRGFAYWGQGTLVTVSS
VL: B1 VL with N5T, L15V, T18R, I19V, A32W, C36Y, N42K, I43V, I83V
Turning to B3, in assay [2], the Kd was 0.0578 nM, the koff is 0.000158 s⁻¹ and the kon stood at 2.85e+06 M⁻¹ s⁻¹. Also, the equilibrium dissociation constant (Kd) in assay [3] was less than 0.1 nM.

B4: IGF11-16 with alanine substitution of H at position 35 (CDR-H1) (antibody, mouse IgG1, V domains shown)
VH: B1 VH with H35A
VL: B1 VL with A32W
On to B4, for which the Binding vs IGF11-16 (EC50) (% vs IGF11-16) in assay [1] came to 49.

B5: IGF11-16 with alanine substitution of W at position 33 (CDR-H1) (antibody, mouse IgG1, V domains shown)
VH: B1 VH with W33A
VL: B1 VL with A32W
Turning to B5, the Binding vs IGF11-16 (EC50) (% vs IGF11-16) in assay [1] was determined as 9.

B6: IGF11-16 with alanine substitution of N at position 52 (CDR-H2) (antibody, mouse IgG1, V domains shown)
VH: B1 VH with N52A
VL: B1 VL with A32W
B6: in assay [1], the Binding vs IGF11-16 (EC50) (% vs IGF11-16) was 21.

B7: IGF11-16 with alanine substitution of N at position 55 (CDR-H2) (antibody, mouse IgG1, V domains shown)
VH: B1 VH with N55A
VL: B1 VL with A32W
For B7, in assay [1], the Binding vs IGF11-16 (EC50) (% vs IGF11-16) turned out to be 94.

B8: IGF11-16 with alanine substitution of F at position 64 (CDR-H2) (antibody, mouse IgG1, V domains shown)
VH: B1 VH with F64A
VL: B1 VL with A32W
Regarding B8, the Binding vs IGF11-16 (EC50) (% vs IGF11-16) in assay [1] stood at 84.

B9: mouse parent antibody IGF11-16 (antibody, mouse IgG1, kappa, V domains shown)
VH: B1 VH
VL: DIQMNQSPSSLSASLGDTITITCRASQNINFWLSWCQQKPGNIPKLLIYKASNLHTGVPSRFSGSGSGTDFTLTISSLQPEDIATYYCLQGQSYPYTFGGGTKLEIKR
B9: in assay [2], the dissociation constant Kd was 0.0314 nM, the koff amounted to 7.72e-05 s⁻¹ and the kon came out at 2.67e+06 M⁻¹ s⁻¹.

B10: humanized antibody hIGF25_PS (antibody, V domains shown)
VH: B3 VH with T93V
VL: B1 VL with N5T, L15V, T18R, I19V, A32W, C36Y, N42K, I43V, I83V
With B10, in assay [2], the Kd turned out to be 0.051 nM, the koff is 0.000135 s⁻¹ and the kon is 2.87e+06 M⁻¹ s⁻¹. For the same molecule, the dissociation constant (Kd) in assay [3] was less than 0.1 nM.

B11: IGF11-16 with alanine substitution of R at position 102 (CDR-H3) (antibody, mouse IgG1, V domains shown)
VH: B1 VH with R102A
VL: B1 VL with A32W
As to B11, in assay [1], the Binding vs IGF11-16 (EC50) (% vs IGF11-16) was determined as 9.

B12: IGF11-16 with alanine substitution of N at position 59 (CDR-H2) (antibody, mouse IgG1, V domains shown)
VH: B1 VH with N59A
VL: B1 VL with A32W
For the molecule B12, the Binding vs IGF11-16 (EC50) (% vs IGF11-16) in assay [1] amounted to 112.

B13: IGF11-16 with alanine substitution of E at position 50 (CDR-H2) (antibody, mouse IgG1, V domains shown)
VH: B1 VH with E50A
VL: B1 VL with A32W
Consider B13, for which the Binding vs IGF11-16 (EC50) (% vs IGF11-16) in assay [1] was found to be 9.

B14: IGF11-16 with alanine substitution of S at position 54 (CDR-H2) (antibody, mouse IgG1, V domains shown)
VH: B1 VH with S54A
VL: B1 VL with A32W
Consider B14, for which, in assay [1], the Binding vs IGF11-16 (EC50) (% vs IGF11-16) came out at 97.
